{
  "source": "paper PMC3278529",
  "about": "(Free radical biology & medicine, 2011)",
  "key": {"p47^phox": {"target": "p47^phox (Homo sapiens, UniProt P14598)", "sequence (P13498 2-195, one chain of several)": "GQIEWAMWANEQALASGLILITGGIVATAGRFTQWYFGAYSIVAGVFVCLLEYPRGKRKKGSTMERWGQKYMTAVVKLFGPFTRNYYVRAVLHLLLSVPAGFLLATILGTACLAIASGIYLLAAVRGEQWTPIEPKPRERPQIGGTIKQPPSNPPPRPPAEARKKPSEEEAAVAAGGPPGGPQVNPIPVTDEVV", "test": "ELISA of p47phox-p22phox peptide interaction", "assay_type": "binding"}, "His-p47^phox wild type": {"target": "T1, His-p47^phox wild type (human, UniProt P14598 1-390)", "T1 sequence (looked up)": "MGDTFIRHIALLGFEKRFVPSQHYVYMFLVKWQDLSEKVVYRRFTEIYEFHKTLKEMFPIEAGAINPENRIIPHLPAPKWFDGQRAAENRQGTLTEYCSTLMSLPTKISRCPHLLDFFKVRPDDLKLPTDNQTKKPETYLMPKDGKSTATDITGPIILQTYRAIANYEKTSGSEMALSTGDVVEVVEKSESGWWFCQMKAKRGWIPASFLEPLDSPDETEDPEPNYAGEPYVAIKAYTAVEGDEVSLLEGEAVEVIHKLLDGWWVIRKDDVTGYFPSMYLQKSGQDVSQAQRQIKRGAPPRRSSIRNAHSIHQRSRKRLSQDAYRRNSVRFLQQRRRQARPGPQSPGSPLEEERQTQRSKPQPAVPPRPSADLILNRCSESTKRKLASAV", "test": "ELISA"}, "C98G-p47^phox": {"target": "T2, C98G-p47^phox (human, UniProt P14598 1-390, C98G)", "T2 sequence (looked up)": "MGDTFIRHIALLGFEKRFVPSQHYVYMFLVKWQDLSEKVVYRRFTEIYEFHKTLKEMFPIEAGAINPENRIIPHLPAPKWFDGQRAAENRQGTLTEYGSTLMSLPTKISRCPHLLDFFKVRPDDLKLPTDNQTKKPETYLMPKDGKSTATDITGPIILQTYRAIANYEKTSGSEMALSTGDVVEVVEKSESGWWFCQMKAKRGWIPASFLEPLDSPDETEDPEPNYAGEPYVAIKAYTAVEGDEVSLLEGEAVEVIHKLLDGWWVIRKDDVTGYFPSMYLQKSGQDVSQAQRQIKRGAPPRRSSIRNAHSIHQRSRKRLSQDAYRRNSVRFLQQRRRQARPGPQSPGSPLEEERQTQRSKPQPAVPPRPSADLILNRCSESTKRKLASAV", "test": "ELISA"}, "C111A-p47^phox": {"target": "T3, C111A-p47^phox (human, UniProt P14598 1-390, C111A)", "T3 sequence (looked up)": "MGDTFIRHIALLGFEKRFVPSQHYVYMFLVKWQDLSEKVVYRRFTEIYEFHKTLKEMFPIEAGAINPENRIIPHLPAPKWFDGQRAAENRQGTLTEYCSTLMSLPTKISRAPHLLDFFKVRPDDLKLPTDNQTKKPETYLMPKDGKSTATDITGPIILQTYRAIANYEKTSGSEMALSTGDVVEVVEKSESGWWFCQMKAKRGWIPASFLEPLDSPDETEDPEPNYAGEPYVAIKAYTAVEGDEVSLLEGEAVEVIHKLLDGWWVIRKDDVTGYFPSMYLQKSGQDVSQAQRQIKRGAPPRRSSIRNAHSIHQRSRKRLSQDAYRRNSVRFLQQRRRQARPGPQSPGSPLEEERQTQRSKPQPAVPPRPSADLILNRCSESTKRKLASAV", "test": "ELISA"}, "C196A-p47^phox": {"target": "T4, C196A-p47^phox (human, UniProt P14598 1-390, C196A)", "T4 sequence (looked up)": "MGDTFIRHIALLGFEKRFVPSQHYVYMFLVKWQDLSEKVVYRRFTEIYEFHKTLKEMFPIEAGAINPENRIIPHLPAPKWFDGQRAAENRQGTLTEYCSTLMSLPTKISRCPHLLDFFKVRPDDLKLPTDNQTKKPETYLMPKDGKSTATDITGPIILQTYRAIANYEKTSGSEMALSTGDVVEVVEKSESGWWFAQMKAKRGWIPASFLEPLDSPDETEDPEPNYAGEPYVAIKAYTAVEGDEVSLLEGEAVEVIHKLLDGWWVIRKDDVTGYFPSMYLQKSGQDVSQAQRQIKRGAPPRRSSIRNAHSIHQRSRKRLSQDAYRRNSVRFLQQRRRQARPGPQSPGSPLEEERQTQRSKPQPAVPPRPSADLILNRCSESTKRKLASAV", "test": "ELISA"}, "C378A-p47^phox": {"target": "T5, C378A-p47^phox (human, UniProt P14598 1-390, C378A)", "T5 sequence (looked up)": "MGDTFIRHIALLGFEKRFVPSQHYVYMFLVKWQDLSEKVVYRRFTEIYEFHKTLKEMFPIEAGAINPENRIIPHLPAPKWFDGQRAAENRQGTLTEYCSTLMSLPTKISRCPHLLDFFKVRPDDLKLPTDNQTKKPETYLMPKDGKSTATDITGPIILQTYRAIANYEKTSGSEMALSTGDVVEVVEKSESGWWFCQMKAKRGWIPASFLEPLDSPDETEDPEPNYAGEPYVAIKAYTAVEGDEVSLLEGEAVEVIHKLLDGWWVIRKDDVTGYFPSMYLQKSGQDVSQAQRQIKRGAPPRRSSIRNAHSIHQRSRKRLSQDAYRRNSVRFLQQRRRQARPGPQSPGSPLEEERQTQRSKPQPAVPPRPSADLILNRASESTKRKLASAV", "test": "ELISA"}},
  "note": "The star is where a group is joined. Biotin = O=C1N[C@H]2[C@H](CS[C@H]2CCCCC(=O)*)N1",
  "data": [
    {"molecule": "O=C1C=CC(=O)c2ccccc21", "note": "[1,4-naphthoquinone]", "values": [
      {"measurement": "IC50", "setting": "p47^phox", "result": 700, "unit": "nM"}
    ]},
    {"molecule": "Biotin-SGSGPPSNPPPRPPAEARK-NH2 (SMILES C[C@H](NC(=O)[C@H](CCC(=O)O)NC(=O)[C@H](C)NC(=O)[C@@H]1CCCN1C(=O)[C@@H]1CCCN1C(=O)[C@H](CCCNC(=N)N)NC(=O)[C@@H]1CCCN1C(=O)[C@@H]1CCCN1C(=O)[C@@H]1CCCN1C(=O)[C@H](CC(N)=O)NC(=O)[C@H](CO)NC(=O)[C@@H]1CCCN1C(=O)[C@@H]1CCCN1C(=O)CNC(=O)[C@H](CO)NC(=O)CNC(=O)[C@H](CO)NC(=O)CCCC[C@@H]1SC[C@@H]2NC(=O)N[C@@H]21)C(=O)N[C@@H](CCCNC(=N)N)C(=O)N[C@@H](CCCCN)C(N)=O)", "note": "[proline-rich p22^phox peptide (biotin-p22^phox)]", "values": [
      {"measurement": "binding result", "setting": "His-p47^phox wild type", "result": "binds"},
      {"measurement": "binding result", "setting": "C98G-p47^phox", "result": "binds"},
      {"measurement": "binding result", "setting": "C111A-p47^phox", "result": "binds"},
      {"measurement": "binding result", "setting": "C196A-p47^phox", "result": "binds"},
      {"measurement": "binding result", "setting": "C378A-p47^phox", "result": "binds"}
    ]}
  ]
}
